Biological target: MSI1 RRM12 (human) (UniProt O43347)
Experiment: ITC
Settings: ITC: 20 mM HEPES pH 7.5, 150 mM NaCl, 3 mM MgCl2, 25 C
[1] = 30 uM RNA in cell, 600 uM protein titrant

Sequence of MSI1 RRM12 (human) (O43347 20-191): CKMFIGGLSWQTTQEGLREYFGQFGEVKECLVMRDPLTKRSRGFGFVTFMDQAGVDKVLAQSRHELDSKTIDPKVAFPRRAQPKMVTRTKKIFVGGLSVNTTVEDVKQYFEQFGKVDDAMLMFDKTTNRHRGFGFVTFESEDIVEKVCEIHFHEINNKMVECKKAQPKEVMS

Substance	Kd	Kd [1]	also measured
ZIKV 3'UTR WT	2.5 µM		
DENV4 3'UTR		336 µM	
ZIKV xrRNA2 deltaP4	5.7 µM		
ZIKV xrRNA1			Kd ([…]): 94.6 µM
JEV 3'UTR		218 µM	
USUV 3'UTR		301 µM	
MVEV 3'UTR		265 µM	
ZIKV 3'SL	65.5 µM		
